According to the supplement of paper PMC6755084:

B1: F1*; the commonest letter at each place (parent)
chain: GAGACCGCAACTGAAAAGTTGTTATCACTTGTCGTAAGACACTTTGGATGGGTTGAAGTTCTGCACGTAGAAGCAAAAGGC

Variants of: B1
Assay: fraction ligated after 30 min (ligated reads / total reads); higher = more ligase activity
Settings: with F1*sub RNA substrate (template-directed ligation), 42 °C
In short: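 Oligo-pool templates of ligase ribozyme variants were PCR-amplified, T7-transcribed and gel-purified. Ligated and unligated bands were gel-separated, reverse transcribed with barcoded primers, and MiSeq-sequenced; core bases were filtered at quality ≥20. Fraction ligated per variant was ligated reads over total reads.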

In order of rising fraction ligated:
1. GAGACCGCAACTGAAAAGTTGTTATCACTTGTCGTAAGACACCTTGGATCGGTTGAAGTTCTGCACGTAGAAGCAAAAGGC [T43C G50C]  0.111
2. GAGACCGCAACTGAAAAGTTGTTATCACTTGTCGTAAGACACATTGGATCGGTTGAAGTTCTGCACGTAGAAGCAAAAGGC [T43A G50C]  0.153
3. GAGACCGCAACTGAAAAGTTGTTATCACTTGTCGTAAGACACCTTGGATAGGTTGAAGTTCTGCACGTAGAAGCAAAAGGC [T43C G50A]  0.187
4. GAGACCGCAACTGAAAAGTTGTTATCACTTGTCGTAAGACACCTGGGATGGGTTGAAGTTCTGCACGTAGAAGCAAAAGGC [T43C T45G]  0.257
5. GAGACCGCAACTGAAAAGTTGTTATCACTTGTCGTAAGACACATTGGATAGGTTGAAGTTCTGCACGTAGAAGCAAAAGGC [T43A G50A]  0.267
6. GAGACCGCAACTGAAAAGTTGTTATCACTTGTCGTAAGACACGTTGGATCGGTTGAAGTTCTGCACGTAGAAGCAAAAGGC [T43G G50C]  0.273
7. GAGACCGCAACTGAAAAGTTGTTATCACTTGTCGTAAGACACCTTGCATGGGTTGAAGTTCTGCACGTAGAAGCAAAAGGC [T43C G47C]  0.276
8. GAGACCGCAACTGAAAAGTTGTTATCACTTGTCGTAAGACACGTTGGATAGGTTGAAGTTCTGCACGTAGAAGCAAAAGGC [T43G G50A]  0.311
9. GAGACCGCAACTGAAAAGTTGTTATCACTTGTCGTAAGACACCTTGGACGGGTTGAAGTTCTGCACGTAGAAGCAAAAGGC [T43C T49C]  0.427
10. GAGACCGCAACTGAAAAGTTGTTATCACTTGTCGTAAGACACATGGGATGGGTTGAAGTTCTGCACGTAGAAGCAAAAGGC [T43A T45G]  0.43
11. GAGACCGCAACTGAAAAGTTGTTATCACTTGTCGTAAGACACCTTGGATTGGTTGAAGTTCTGCACGTAGAAGCAAAAGGC [T43C G50T]  0.441
12. GAGACCGCAACTGAAAAGTTGTTATCACTTGTCGTAAGACACCTTGTATGGGTTGAAGTTCTGCACGTAGAAGCAAAAGGC [T43C G47T]  0.446
13. GAGACCGCAACTGAAAAGTTGTTATCACTTGTCGTAAGACACGTTGCATGGGTTGAAGTTCTGCACGTAGAAGCAAAAGGC [T43G G47C]  0.447
14. GAGACCGCAACTGAAAAGTTGTTATCACTTGTCGTAAGACACATTGCATGGGTTGAAGTTCTGCACGTAGAAGCAAAAGGC [T43A G47C]  0.515
15. GAGACCGCAACTGAAAAGTTGTTATCACTTGTCGTAAGACACGTTGTATGGGTTGAAGTTCTGCACGTAGAAGCAAAAGGC [T43G G47T]  0.52
16. GAGACCGCAACTGAAAAGTTGTTATCACTTGTCGTAAGACACGTTGGATTGGTTGAAGTTCTGCACGTAGAAGCAAAAGGC [T43G G50T]  0.561
17. GAGACCGCAACTGAAAAGTTGTTATCACTTGTCGTAAGACACCTTGGATGGGTTCAAGTTCTGCACGTAGAAGCAAAAGGC [T43C G55C]  0.571
18. GAGACCGCAACTGAAAAGTTGTTATCACTTGTCGTAAGACACCTAGGATGGGTTGAAGTTCTGCACGTAGAAGCAAAAGGC [T43C T45A]  0.574
19. GAGACCGCAACTGAAAAGTTGTTATCACTTGTCGTAAGACACCTCGGATGGGTTGAAGTTCTGCACGTAGAAGCAAAAGGC [T43C T45C]  0.584
20. GAGACCGCAACTGAAAAGTTGTTATCACTTGTCGTAAGACACATTGGACGGGTTGAAGTTCTGCACGTAGAAGCAAAAGGC [T43A T49C]  0.605
21. GAGACCGCAACTGAAAAGTTGTTATCACTTGTCGTAAGACACATTGGATTGGTTGAAGTTCTGCACGTAGAAGCAAAAGGC [T43A G50T]  0.614
22. GAGACCGCAACTGAAAAGTTGTTATCACTTGTCGTAAGACACGTTGGCTGGGTTGAAGTTCTGCACGTAGAAGCAAAAGGC [T43G A48C]  0.625
23. GAGACCGCAACTGAAAAGTTGTTATCACTTGTCGTAAGACACCTTGGAAGGGTTGAAGTTCTGCACGTAGAAGCAAAAGGC [T43C T49A]  0.638
24. GAGACCGCAACTGAAAAGTTGTTATCACTTGTCGTAAGACACATTGTATGGGTTGAAGTTCTGCACGTAGAAGCAAAAGGC [T43A G47T]  0.643
25. GAGACCGCAACTGAAAAGTTGTTATCACTTGTCGTAAGACACCTTGGAGGGGTTGAAGTTCTGCACGTAGAAGCAAAAGGC [T43C T49G]  0.665
26. GAGACCGCAACTGAAAAGTTGTTATCACTTGTCGTAAGACACGTTGGTTGGGTTGAAGTTCTGCACGTAGAAGCAAAAGGC [T43G A48T]  0.668
27. GAGACCGCAACTGAAAAGTTGTTATCACTTGTCGTAAGACACCTTGGTTGGGTTGAAGTTCTGCACGTAGAAGCAAAAGGC [T43C A48T]  0.668
28. GAGACCGCAACTGAAAAGTTGTTATCACTTGTCGTAAGACACATCGGATGGGTTGAAGTTCTGCACGTAGAAGCAAAAGGC [T43A T45C]  0.696
29. GAGACCGCAACTGAAAAGTTGTTATCACTTGTCGTAAGACACGTTGGATGGGTTGCAGTTCTGCACGTAGAAGCAAAAGGC [T43G A56C]  0.713
30. GAGACCGCAACTGAAAAGTTGTTATCACTTGTCGTAAGACACGTTGGATGGGTTGGAGTTCTGCACGTAGAAGCAAAAGGC [T43G A56G]  0.717
31. GAGACCGCAACTGAAAAGTTGTTATCACTTGTCGTAAGACACCTTGGCTGGGTTGAAGTTCTGCACGTAGAAGCAAAAGGC [T43C A48C]  0.723
32. GAGACCGCAACTGAAAAGTTGTTATCACTTGTCGTAAGACACATTGGATGGGTTCAAGTTCTGCACGTAGAAGCAAAAGGC [T43A G55C]  0.724
33. GAGACCGCAACTGAAAAGTTGTTATCACTTGTCGTAAGACACATAGGATGGGTTGAAGTTCTGCACGTAGAAGCAAAAGGC [T43A T45A]  0.725
34. GAGACCGCAACTGAAAAGTTGTTATCACTTGTCGTAAGACACCTTGGATGGGTTGCAGTTCTGCACGTAGAAGCAAAAGGC [T43C A56C]  0.731
35. GAGACCGCAACTGAAAAGTTGTTATCACTTGTCGTAAGACACCTTGGATGGGTTGACGTTCTGCACGTAGAAGCAAAAGGC [T43C A57C]  0.733
36. GAGACCGCAACTGAAAAGTTGTTATCACTTGTCGTAAGACACATTGGAAGGGTTGAAGTTCTGCACGTAGAAGCAAAAGGC [T43A T49A]  0.743
37. GAGACCGCAACTGAAAAGTTGTTATCACTTGTCGTAAGACACCTTGGATGGGTTGTAGTTCTGCACGTAGAAGCAAAAGGC [T43C A56T]  0.755
38. GAGACCGCAACTGAAAAGTTGTTATCACTTGTCGTAAGACACCTTGGATGGGTTGGAGTTCTGCACGTAGAAGCAAAAGGC [T43C A56G]  0.757
39. GAGACCGCAACTGAAAAGTTGTTATCACTTGTCGTAAGACACCTTGGGTGGGTTGAAGTTCTGCACGTAGAAGCAAAAGGC [T43C A48G]  0.764
40. GAGACCGCAACTGAAAAGTTGTTATCACTTGTCGTAAGACACGTTGGATGGGTTGTAGTTCTGCACGTAGAAGCAAAAGGC [T43G A56T]  0.764
41. GAGACCGCAACTGAAAAGTTGTTATCACTTGTCGTAAGACACCTTGAATGGGTTGAAGTTCTGCACGTAGAAGCAAAAGGC [T43C G47A]  0.767
42. GAGACCGCAACTGAAAAGTTGTTATCACTTGTCGTAAGACACCTTTGATGGGTTGAAGTTCTGCACGTAGAAGCAAAAGGC [T43C G46T]  0.776
43. GAGACCGCAACTGAAAAGTTGTTATCACTTGTCGTAAGACACGTTGGGTGGGTTGAAGTTCTGCACGTAGAAGCAAAAGGC [T43G A48G]  0.78
44. GAGACCGCAACTGAAAAGTTGTTATCACTTGTCGTAAGACACCCTGGATGGGTTGAAGTTCTGCACGTAGAAGCAAAAGGC [T43C T44C]  0.781
45. GAGACCGCAACTGAAAAGTTGTTATCACTTGTCGTAAGACACGTTCGATGGGTTGAAGTTCTGCACGTAGAAGCAAAAGGC [T43G G46C]  0.783
46. GAGACCGCAACTGAAAAGTTGTTATCACTTGTCGTAAGACACCTTGGATGGGTTGAGGTTCTGCACGTAGAAGCAAAAGGC [T43C A57G]  0.785
47. GAGACCGCAACTGAAAAGTTGTTATCACTTGTCGTAAGACACGTTTGATGGGTTGAAGTTCTGCACGTAGAAGCAAAAGGC [T43G G46T]  0.787
48. GAGACCGCAACTGAAAAGTTGTTATCACTTGTCGTAAGACACCTTAGATGGGTTGAAGTTCTGCACGTAGAAGCAAAAGGC [T43C G46A]  0.789
49. GAGACCGCAACTGAAAAGTTGTTATCACTTGTCGTAAGACACCTTGGATGGGTTGATGTTCTGCACGTAGAAGCAAAAGGC [T43C A57T]  0.79
50. GAGACCGCAACTGAAAAGTTGTTATCACTTGTCGTAAGACACCTTCGATGGGTTGAAGTTCTGCACGTAGAAGCAAAAGGC [T43C G46C]  0.791
51. GAGACCGCAACTGAAAAGTTGTTATCACTTGTCGTAAGACACATTGGAGGGGTTGAAGTTCTGCACGTAGAAGCAAAAGGC [T43A T49G]  0.797
52. GAGACCGCAACTGAAAAGTTGTTATCACTTGTCGTAAGACACGTTGGATGGGTTGATGTTCTGCACGTAGAAGCAAAAGGC [T43G A57T]  0.799
53. GAGACCGCAACTGAAAAGTTGTTATCACTTGTCGTAAGACACGTTGAATGGGTTGAAGTTCTGCACGTAGAAGCAAAAGGC [T43G G47A]  0.802
54. GAGACCGCAACTGAAAAGTTGTTATCACTTGTCGTAAGACACGTTGGATGGGTTGAGGTTCTGCACGTAGAAGCAAAAGGC [T43G A57G]  0.803
55. GAGACCGCAACTGAAAAGTTGTTATCACTTGTCGTAAGACACCTTGGATGGGTTAAAGTTCTGCACGTAGAAGCAAAAGGC [T43C G55A]  0.803
56. GAGACCGCAACTGAAAAGTTGTTATCACTTGTCGTAAGACACATTGAATGGGTTGAAGTTCTGCACGTAGAAGCAAAAGGC [T43A G47A]  0.804
57. GAGACCGCAACTGAAAAGTTGTTATCACTTGTCGTAAGACACAGTGGATGGGTTGAAGTTCTGCACGTAGAAGCAAAAGGC [T43A T44G]  0.804
58. GAGACCGCAACTGAAAAGTTGTTATCACTTGTCGTAAGACACGTTAGATGGGTTGAAGTTCTGCACGTAGAAGCAAAAGGC [T43G G46A]  0.808
59. GAGACCGCAACTGAAAAGTTGTTATCACTTGTCGTAAGACACGTTGGATGGGTTGACGTTCTGCACGTAGAAGCAAAAGGC [T43G A57C]  0.809
60. GAGACCGCAACTGAAAAGTTGTTATCACTTGTCGTAAGACACCTTGGATGGGTTGAAGTTCTGCACGTAGAAGCAAAAGGC [T43C]  0.81
61. GAGACCGCAACTGAAAAGTTGTTATCACTTGTCGTAAGACACCTTGGATGGGTTTAAGTTCTGCACGTAGAAGCAAAAGGC [T43C G55T]  0.817
62. GAGACCGCAACTGAAAAGTTGTTATCACTTGTCGTAAGACACGTTGGATGGGTTGAAGTTCTGCACGTAGAAGCAAAAGGC [T43G]  0.822
63. GAGACCGCAACTGAAAAGTTGTTATCACTTGTCGTAAGACACCATGGATGGGTTGAAGTTCTGCACGTAGAAGCAAAAGGC [T43C T44A]  0.833
64. GAGACCGCAACTGAAAAGTTGTTATCACTTGTCGTAAGACACCGTGGATGGGTTGAAGTTCTGCACGTAGAAGCAAAAGGC [T43C T44G]  0.836
65. GAGACCGCAACTGAAAAGTTGTTATCACTTGTCGTAAGACACACTGGATGGGTTGAAGTTCTGCACGTAGAAGCAAAAGGC [T43A T44C]  0.836
66. GAGACCGCAACTGAAAAGTTGTTATCACTTGTCGTAAGACACATTGGATGGGTTTAAGTTCTGCACGTAGAAGCAAAAGGC [T43A G55T]  0.839
67. GAGACCGCAACTGAAAAGTTGTTATCACTTGTCGTAAGACACAATGGATGGGTTGAAGTTCTGCACGTAGAAGCAAAAGGC [T43A T44A]  0.848
68. GAGACCGCAACTGAAAAGTTGTTATCACTTGTCGTAAGACACATTGGATGGGTTAAAGTTCTGCACGTAGAAGCAAAAGGC [T43A G55A]  0.854
